This assay has as its target human LDL (Low Density Lipoprotein) receptor (human) (UniProt P01130). Kind of assay: competition by flow cytometry on A549 cells: unlabelled LDLs (varied, 16-fold excess) reduce the binding of 12G4 (30 µg/mL) to LDL-R. A general note: Flow cytometry measures light scatter and fluorescence of single cells or particles in a stream.

Chain of human LDL (Low Density Lipoprotein) receptor (human) (P01130 22-860): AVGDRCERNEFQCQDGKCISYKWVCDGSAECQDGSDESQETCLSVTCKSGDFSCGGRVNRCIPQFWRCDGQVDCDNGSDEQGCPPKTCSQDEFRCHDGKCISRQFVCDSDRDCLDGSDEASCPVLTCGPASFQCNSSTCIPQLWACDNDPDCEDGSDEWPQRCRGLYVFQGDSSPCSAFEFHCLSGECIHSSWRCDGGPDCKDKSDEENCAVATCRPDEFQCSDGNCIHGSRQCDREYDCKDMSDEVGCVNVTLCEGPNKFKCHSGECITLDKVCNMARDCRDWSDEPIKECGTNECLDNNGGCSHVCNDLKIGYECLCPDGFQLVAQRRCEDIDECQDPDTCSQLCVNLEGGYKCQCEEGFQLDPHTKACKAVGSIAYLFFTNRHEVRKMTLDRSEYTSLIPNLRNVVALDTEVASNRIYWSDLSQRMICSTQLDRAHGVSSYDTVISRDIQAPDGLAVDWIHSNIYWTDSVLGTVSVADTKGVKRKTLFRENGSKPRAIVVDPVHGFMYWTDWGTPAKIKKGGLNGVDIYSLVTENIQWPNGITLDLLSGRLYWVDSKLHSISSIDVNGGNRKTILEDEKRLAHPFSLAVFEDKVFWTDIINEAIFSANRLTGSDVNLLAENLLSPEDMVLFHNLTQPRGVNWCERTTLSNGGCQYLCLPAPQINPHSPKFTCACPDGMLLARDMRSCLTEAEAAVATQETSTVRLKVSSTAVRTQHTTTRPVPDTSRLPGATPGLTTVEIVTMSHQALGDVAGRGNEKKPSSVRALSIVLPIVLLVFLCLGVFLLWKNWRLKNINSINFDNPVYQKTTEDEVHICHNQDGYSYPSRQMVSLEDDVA

Substance “LDLs (Low Density Lipoproteins) (from UniProt P04114 28-4563) (ligand)” displayed a reduction in the bond of 60%.

The record behind these values is patent publication US20090175789A1.
